In patent US7910100B2, “Antibodies directed to the mammalian EAG1 ion channel protein” (Max-Planck-Gesellschaft zur Forderung der Wissen, priority 2004, dated 2011):

B1: ImAb1: mouse monoclonal anti-Eag1 antibody; VL SEQ ID NO: 43, VH SEQ ID NO: 44; binds C-terminus of Eag1 (antibody, listed as Mus musculus)
heavy: MNFGFSLIFLVLVLKGVQCEVKLVESGGGLVKPGGSLKLSCAASGFTFSNYAMSWVRQTPEKRLEWVASISSDGDTYFPDNVKGRFTISRENAGNILFLQMSSLRSEDTAMYYCARGFMITFWGQGTLVTVSAAKTTPPSVYPLAPGCGDTTGSSVTLGCLVKGYFPESVTVTWNSGSLSSSVHTFPALLQSGLYTMSSSVTVPSSTWPSQTVTCSVAHPASSTTVD
light: MDMRAPAQFFGILLLWFPGIRCDIKMTQSPSSMYASLGERVTITCKASQDIKSYLSWYQQKPWKSPKILIYYATSLADGVPSRISGSGSGQDYSLTISSLESDDTATYYCLQHGESPYTFGGGTKLEIKRADAAPTVSIFPPSSEQLTSGGASVVCFLNNFYPKDINVKWKIDGSERQNGVLNSWTDQDSKDSTYSMSSTLTLTKDEYERHNSYTCEATHKTSTSPIVKSFNRNEC
B2: ImAb4: mouse monoclonal anti-Eag1 antibody, IgG2b kappa; light chain SEQ ID NO: 2, heavy chain SEQ ID NO: 4 (antibody, listed as Mus musculus)
heavy: MRVLILLWLFTAFPGILSDVQLQESGPGLVKPSQSLSLTCTVTGYSITSDYAWNWIRQFPGNKLEWMGYISYSGSTIYNPSLKSRISITRDTSKNQFFLQLNSVTTEDTATYYCARFGNYGNTLNYWGQGTSVTVSSAKTTPPSVYPLAPGCGDTTGSSVTLGCLVKGYFPESVTVTWNSGSLSSSVHTFPALLQSGLYTMSSSVTVPSSTWPSQTVTCSVAHPASSTTVDKKLEPSGPISTINPCPPCKECHKCPAPNLEGGPSVFIFPPNIKDVLMISLTPKVTCVVVDVSEDDPDVQISWFVNNVEVHTAQTQTHREDYNSTIRVVSTLPIQHQDWMSGKEFKCKVNNKDLPSPIERTISKIKGLVRAPQVYILPPPAEQLSRKDVSLTCLVVGFNPGDISVEWTSNGHTEENYKDTAPVLDSDGSYFIYSKLNMKTSKWEKTDSFSCNVRHEGLKNYYLKKTISRSPGK
light: MKLPVRLLVLMFWIPASSSDVVMTQTPLSLPVSLGDQASISCRSSQSLVHSNGNTYLHWYLQKPGQSPKLLIYKVSNRFSGVPDRFSGSGSGTDFTLKISRVEAEDLGVYFCSQSTHVPPTFGGGTKLEIKRADAAPTVSIFPPSSEQLTSGGASVVCFLNNFYPKDINVKWKIDGSERQNGVLNSWTDQDSKDSTYSMSSTLTLTKDEYERHNSYTCEATHKTSTSPIVKSFNRNEC

What was measured:
Eag1 current = target: T1, Eag1 current (Homo sapiens, UniProt O95259); experiment: Two-electrode voltage clamp in Eag1-expressing oocytes; format: cell-based; details: 10% hybridoma supernatant
T1 construct: expressed in transfected cells
T1 sequence (O95259 1-962 isoform O95259-2): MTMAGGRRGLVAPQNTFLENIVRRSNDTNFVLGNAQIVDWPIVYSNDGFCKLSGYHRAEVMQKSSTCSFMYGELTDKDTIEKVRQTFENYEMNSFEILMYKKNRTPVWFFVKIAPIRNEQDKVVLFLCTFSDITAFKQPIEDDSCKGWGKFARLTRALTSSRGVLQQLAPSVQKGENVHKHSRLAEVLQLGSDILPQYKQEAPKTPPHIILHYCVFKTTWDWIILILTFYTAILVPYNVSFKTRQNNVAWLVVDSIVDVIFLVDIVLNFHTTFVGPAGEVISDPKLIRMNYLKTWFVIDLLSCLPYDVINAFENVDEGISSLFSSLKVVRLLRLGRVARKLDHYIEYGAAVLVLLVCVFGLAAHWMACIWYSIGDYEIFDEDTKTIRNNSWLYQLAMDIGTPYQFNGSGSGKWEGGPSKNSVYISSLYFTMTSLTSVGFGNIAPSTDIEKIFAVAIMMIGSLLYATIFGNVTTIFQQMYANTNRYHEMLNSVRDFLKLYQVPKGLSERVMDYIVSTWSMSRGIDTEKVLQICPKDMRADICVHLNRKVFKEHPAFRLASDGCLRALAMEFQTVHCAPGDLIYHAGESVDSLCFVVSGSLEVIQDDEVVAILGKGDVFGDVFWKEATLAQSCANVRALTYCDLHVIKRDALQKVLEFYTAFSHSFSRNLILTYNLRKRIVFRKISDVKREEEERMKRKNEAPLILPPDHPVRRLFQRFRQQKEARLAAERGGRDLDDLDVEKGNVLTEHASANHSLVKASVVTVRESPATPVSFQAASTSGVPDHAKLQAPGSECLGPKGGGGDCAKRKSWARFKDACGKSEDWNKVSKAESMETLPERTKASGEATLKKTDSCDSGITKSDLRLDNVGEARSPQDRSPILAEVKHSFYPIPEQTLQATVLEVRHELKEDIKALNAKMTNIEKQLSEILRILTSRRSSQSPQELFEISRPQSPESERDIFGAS
Protocol: In order to analyse the functional properties of anti-Eag1 antibodies of the invention were analysed by a two-electrode voltage clamp experiment. Therefore, Oocyte preparation and electrophysiological recordings were performed as described in Stühmer, W., 1992, Methods in Enzymology 207. Oocytes were injected with synthetic mRNA coding for Eag1, incubated for 48 h and recorded in NFR (115 mM NaCl, 1.8 CaCl2, 2.5 KCl, 10 Hepes pH 7.2) until stable traces were recorded. Then, 10% of the corresponding hybridoma supernatant producing ImAb1 or ImAb3 was added to the chamber and current amplitudes were further monitored.

[1] = target: T2, endogenous Eag1 antigen in MCF7 breast cancer and IPC-298 melanoma cells (Homo sapiens, UniProt O95259); experiment: Immunofluorescence detection of Eag1 antigen in human tumor cells; format: cell-based; details: 2 μg/ml antibody
T2 construct: endogenous in cells; host or cells: MCF7 breast cancer cells, IPC-298 melanoma cells
T2 sequence (O95259 1-989): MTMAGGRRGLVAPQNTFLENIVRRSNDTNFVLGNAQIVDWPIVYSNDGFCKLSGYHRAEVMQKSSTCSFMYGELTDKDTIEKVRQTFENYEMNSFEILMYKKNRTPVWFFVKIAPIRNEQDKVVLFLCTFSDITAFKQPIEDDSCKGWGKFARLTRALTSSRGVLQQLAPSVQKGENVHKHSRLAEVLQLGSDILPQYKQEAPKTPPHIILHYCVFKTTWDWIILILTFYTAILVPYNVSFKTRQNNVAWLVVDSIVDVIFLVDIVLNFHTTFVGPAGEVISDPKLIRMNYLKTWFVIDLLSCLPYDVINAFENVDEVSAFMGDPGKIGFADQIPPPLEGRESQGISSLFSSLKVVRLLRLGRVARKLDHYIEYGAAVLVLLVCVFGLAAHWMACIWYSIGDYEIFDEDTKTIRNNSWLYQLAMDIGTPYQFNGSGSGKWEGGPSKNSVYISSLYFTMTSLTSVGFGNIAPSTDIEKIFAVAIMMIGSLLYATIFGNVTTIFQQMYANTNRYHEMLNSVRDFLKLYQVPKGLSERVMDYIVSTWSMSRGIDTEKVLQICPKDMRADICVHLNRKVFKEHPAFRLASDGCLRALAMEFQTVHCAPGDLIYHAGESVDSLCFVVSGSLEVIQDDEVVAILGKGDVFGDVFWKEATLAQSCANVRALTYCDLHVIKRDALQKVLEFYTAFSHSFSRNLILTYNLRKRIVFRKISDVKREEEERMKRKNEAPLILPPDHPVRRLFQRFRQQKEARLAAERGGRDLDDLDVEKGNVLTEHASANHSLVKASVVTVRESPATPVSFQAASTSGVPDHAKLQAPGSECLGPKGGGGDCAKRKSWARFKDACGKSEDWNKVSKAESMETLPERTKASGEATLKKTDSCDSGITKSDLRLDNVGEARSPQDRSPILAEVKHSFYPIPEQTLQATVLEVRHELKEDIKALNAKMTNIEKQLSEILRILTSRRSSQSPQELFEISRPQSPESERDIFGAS
Protocol: For detection of Eag1 antigen in human tumor cells an Immunofluorescence staining protocol was established. Glass-Chamber slides (Falcon) were pre-coated with 300 μl medium containing 10% FCS at 37° C. for 30 min. 40 000 MCF7 breast cancer cells/well and 40 000 IPC-298 melanoma cells/well were seeded on pre-coated glass chamber slides and cultured at 37° C. in 5% CO2 for 24 h. After removing the chambers, slides were washed with PBS and cells were fixed with 4% Paraformaldehyd (in PBS adjusted to pH 7.5 with 1 M NaOH) at 25° C. for 10 min. Slides were air dried and re-hydrated with PBS for 3 min (3×). Cells were permeabilized with 0.5% Triton-X 100 in PBS for 10 min at 25° C., slides were washed for 3 min in PBS (3×) and each well was blocked with 100 μl blocking buffer (5% FCS, 2.5% BSA in PBS) at 25° C. for 1 hours. 2 μg/ml anti-EAG1 antibody ImAb 4 diluted in 40 μl blocking buffer/well was incubated for 1 h at 25° C., washed 3× with PBS and 50 μl Alexa 546 goat anti-mouse IgG (Molecular Probes; diluted 1:200 in dilution buffer) was incubated as detection antibody for 1 h at 25° C. Slides were washed with PBS (3×), 50 μl DAPI (Roche; diluted 1:1000 in PBS) was added to each well and incubated at 25° C. for 5 min. […]
Staining of the anti-EAG1 antigen with ImAb 4 was analysed using a Fluorescence microscope at 573 nm.

Molecule	inhibition of Eag1 current (Eag1 current)	preferential binding by cell stage [1]	binding to endogenous Eag1 antigen ([1]; fixed permeabilized cells)
B1	No inhibition of Eag1 current was detected		
B2		preferentially binds to dividing human cancer cells	binds to endogenous Eag1 antigen in human cancer cells
